# B1: Polycystin-2 (Homo sapiens), Q13563-1 (parent)
# chain: MVNSSRVQPQQPGDAKRPPAPRAPDPGRLMAGCAAVGASLAAPGGLCEQRGLEIEMQRIRQAAARDPPAGAAASPSPPLSSCSRQAWSRDNPGFEAEEEEEEVEGEEGGMVVEMDVEWRPGSRRSAASSAVSSVGARSRGLGGYHGAGHPSGRRRRREDQGPPCPSPVGGGDPLHRHLPLEGQPPRVAWAERLVRGLRGLWGTRLMEESSTNREKYLKSVLRELVTYLLFLIVLCILTYGMMSSNVYYYTRMMSQLFLDTPVSKTEKTNFKTLSSMEDFWKFTEGSLLDGLYWKMQPSNQTEADNRSFIFYENLLLGVPRIRQLRVRNGSCSIPQDLRDEIKECYDVYSVSSEDRAPFGPRNGTAWIYTSEKDLNGSSHWGIIATYSGAGYYLDLSRTREETAAQVASLKKNVWLDRGTRATFIDFSVYNANINLFCVVRLLVEFPATGGVIPSWQFQPLKLIRYVTTFDFFLAACEIIFCFFIFYYVVEEILEIRIHKLHYFRSFWNCLDVVIVVLSVVAIGINIYRTSNVEVLLQFLEDQNTFPNFEHLAYWQIQFNNIAAVTVFFVWIKLFKFINFNRTMSQLSTTMSRCAKDLFGFAIMFFIIFLAYAQLAYLVFGTQVDDFSTFQECIFTQFRIILGDINFAEIEEANRVLGPIYFTTFVFFMFFILLNMFLAIINDTYSEVKSDLAQQKAEMELSDLIRKGYHKALVKLKLKKNTVDDISESLRQGGGKLNFDELRQDLKGKGHTDAEIEAIFTKYDQDGDQELTEHEHQQMRDDLEKEREDLDLDHSSLPRPMSSRSFPRSLDDSEEDDDEDSGHSSRRRGSISSGVSYEEFQVLVRRVDRMEHSIGSIVSKIDAVIVKLEIMERAKLKRREVLGRLLDGVAEDERLGRDSEIHREQMERLVREELERWESDDAASQISHGLGTPVGLNGQPRPRSSRPSSSQSTEGMEGAGGNGSSNVHV
# Variants of: B1
# Details: with PKD1, P98161-3
# Sequence of PKD1, P98161-3 (P98161 whole entry, looked up): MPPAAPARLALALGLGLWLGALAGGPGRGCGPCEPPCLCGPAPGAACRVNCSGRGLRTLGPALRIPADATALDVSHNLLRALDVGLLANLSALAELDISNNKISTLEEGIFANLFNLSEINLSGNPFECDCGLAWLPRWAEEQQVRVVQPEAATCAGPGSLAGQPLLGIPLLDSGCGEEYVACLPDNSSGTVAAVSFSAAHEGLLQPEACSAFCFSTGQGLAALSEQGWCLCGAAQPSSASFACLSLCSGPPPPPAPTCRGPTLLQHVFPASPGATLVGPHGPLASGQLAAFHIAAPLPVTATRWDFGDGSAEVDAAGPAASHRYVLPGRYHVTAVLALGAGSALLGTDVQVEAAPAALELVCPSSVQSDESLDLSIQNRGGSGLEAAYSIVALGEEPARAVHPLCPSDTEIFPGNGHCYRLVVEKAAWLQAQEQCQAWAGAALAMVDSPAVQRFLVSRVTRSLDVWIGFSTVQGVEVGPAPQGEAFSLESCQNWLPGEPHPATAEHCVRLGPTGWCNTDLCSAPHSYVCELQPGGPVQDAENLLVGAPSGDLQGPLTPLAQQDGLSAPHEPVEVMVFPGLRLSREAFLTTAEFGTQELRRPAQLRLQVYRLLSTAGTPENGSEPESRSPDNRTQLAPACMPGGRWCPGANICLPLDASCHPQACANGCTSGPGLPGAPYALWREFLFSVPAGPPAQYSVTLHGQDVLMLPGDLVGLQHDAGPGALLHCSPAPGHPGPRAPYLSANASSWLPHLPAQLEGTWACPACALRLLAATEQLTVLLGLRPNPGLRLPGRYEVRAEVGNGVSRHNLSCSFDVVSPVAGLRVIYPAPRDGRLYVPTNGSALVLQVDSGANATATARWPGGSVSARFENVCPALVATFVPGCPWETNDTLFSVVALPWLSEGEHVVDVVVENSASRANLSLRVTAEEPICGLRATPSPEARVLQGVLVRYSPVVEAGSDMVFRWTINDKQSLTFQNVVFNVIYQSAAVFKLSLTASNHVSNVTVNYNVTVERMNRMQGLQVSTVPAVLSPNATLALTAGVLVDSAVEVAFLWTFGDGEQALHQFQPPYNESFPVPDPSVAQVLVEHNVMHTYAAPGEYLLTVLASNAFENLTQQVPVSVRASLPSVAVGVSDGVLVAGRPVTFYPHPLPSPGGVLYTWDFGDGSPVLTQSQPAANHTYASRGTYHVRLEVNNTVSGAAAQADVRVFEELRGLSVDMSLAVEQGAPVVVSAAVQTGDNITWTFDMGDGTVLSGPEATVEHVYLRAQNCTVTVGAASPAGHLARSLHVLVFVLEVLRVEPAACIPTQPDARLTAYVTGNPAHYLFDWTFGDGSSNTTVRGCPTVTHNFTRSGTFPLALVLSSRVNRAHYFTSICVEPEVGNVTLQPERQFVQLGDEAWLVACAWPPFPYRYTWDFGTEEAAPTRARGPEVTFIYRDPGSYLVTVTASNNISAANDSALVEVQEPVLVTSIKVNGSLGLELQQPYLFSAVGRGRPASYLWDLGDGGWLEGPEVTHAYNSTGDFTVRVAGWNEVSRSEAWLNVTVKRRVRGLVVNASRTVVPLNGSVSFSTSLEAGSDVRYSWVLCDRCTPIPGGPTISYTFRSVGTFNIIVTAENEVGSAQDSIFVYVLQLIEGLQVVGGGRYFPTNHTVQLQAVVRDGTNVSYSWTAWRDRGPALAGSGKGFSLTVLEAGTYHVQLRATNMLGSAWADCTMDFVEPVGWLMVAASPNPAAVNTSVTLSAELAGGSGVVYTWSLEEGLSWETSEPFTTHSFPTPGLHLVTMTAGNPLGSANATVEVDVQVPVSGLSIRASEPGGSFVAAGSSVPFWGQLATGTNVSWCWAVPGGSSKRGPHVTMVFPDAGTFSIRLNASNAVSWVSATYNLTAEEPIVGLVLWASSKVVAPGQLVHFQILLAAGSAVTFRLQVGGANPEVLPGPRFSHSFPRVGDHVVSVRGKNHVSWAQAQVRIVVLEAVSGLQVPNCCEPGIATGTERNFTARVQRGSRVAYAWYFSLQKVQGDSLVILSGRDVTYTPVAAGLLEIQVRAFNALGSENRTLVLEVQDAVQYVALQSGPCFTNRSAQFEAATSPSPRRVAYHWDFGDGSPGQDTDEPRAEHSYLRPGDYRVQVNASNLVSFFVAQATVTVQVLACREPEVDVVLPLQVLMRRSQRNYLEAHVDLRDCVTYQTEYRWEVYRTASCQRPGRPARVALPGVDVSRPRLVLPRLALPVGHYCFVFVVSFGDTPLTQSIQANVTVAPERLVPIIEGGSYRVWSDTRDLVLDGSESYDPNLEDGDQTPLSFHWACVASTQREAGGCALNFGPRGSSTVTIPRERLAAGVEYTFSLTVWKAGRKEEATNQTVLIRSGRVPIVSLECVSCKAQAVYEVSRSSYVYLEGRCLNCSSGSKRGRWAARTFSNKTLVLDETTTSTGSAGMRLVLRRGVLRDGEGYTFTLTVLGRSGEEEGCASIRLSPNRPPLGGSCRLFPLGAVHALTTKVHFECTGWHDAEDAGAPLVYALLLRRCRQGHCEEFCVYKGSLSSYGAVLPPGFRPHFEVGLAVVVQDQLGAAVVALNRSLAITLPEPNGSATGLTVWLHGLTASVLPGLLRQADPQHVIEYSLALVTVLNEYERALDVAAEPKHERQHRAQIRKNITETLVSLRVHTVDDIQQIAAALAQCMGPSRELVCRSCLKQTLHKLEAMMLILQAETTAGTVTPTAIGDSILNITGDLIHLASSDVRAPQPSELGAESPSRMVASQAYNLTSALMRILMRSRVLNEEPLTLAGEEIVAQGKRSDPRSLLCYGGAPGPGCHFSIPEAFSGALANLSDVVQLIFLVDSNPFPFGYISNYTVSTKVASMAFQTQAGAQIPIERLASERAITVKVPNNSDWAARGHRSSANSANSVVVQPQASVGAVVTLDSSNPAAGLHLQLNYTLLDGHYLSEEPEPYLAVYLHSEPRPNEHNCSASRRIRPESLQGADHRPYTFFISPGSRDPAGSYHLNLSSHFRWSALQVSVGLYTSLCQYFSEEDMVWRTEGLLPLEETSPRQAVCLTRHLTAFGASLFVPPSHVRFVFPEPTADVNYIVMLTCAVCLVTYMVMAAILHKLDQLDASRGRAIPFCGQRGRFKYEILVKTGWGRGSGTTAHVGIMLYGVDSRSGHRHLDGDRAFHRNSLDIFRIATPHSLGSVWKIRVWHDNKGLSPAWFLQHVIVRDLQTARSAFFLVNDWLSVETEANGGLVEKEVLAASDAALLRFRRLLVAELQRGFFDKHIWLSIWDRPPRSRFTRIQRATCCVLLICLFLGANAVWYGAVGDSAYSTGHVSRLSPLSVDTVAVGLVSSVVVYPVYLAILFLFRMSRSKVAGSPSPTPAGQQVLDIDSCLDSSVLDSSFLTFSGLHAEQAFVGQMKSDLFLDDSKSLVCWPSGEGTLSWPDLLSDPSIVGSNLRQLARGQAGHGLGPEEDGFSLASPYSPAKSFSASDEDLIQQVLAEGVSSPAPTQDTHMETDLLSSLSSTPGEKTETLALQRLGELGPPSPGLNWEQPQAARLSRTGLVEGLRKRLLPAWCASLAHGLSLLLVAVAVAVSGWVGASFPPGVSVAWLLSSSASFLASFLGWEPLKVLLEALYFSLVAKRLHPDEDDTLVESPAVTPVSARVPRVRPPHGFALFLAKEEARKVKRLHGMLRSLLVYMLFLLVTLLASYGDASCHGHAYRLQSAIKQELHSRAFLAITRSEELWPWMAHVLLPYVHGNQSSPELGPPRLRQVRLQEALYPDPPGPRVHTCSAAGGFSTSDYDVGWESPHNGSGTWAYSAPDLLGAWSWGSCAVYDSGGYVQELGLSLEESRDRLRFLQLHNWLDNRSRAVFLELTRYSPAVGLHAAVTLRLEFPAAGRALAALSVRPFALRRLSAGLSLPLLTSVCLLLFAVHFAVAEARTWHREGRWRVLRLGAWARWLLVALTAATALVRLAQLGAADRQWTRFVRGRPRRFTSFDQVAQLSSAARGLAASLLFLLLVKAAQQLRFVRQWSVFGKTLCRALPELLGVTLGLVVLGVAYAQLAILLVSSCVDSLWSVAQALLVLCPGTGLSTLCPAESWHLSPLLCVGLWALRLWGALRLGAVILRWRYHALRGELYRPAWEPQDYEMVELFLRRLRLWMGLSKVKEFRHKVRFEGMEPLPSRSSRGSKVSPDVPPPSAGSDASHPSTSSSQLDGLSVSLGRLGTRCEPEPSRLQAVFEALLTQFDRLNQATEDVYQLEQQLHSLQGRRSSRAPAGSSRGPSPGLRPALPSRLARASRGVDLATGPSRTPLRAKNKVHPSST
row,Variant,effect of a mutation on the interaction
1,D861A;I864A;V865A,decreasing interaction strength
2,V865A;I869A,decreasing interaction strength
3,K876A;R877A,decreasing interaction strength
4,K876A;R877A;R878A;E879A,decreasing interaction strength
5,K876G;R877G;R878G;E879G,decreasing interaction strength
6,R877A;R878A,decreasing interaction strength
7,R877G;R878G,disrupting interaction strength
8,V880A;L881A;L885A,decreasing interaction strength
9,L881A;L885A,disrupting interaction strength
10,L881D;L885D,decreasing interaction strength
11,R883A;L884A,decreasing interaction strength

# Variants of: B1
# Details: with pkd1_mouse Pkd1, O08852
row,Variant,effect of a mutation on the interaction
1,V880A;L881A;L885A,decreasing interaction strength
2,L881A;L885A,decreasing interaction strength
